A word on the Kd: it is the free concentration of one partner at which half of the binding sites on the other are occupied at equilibrium, for simple one-to-one binding. The low end stands for a tighter complex, the high end for a looser complex.

Data on three sequences can be found in the supplement of paper PMC6379048.

Common to all, as to experiment: Kd (EC50 corrected by depletion factor)
One series addresses SRRM2 (UniProt Q9UQ35). In a few lines:
(§1)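 Free RNA oligos (0 nM to 30 μM) were pre-incubated with HEK293-FT lysate (2.5 mg protein/well) for 1 h at 4°C, followed by 30 min at 4°C with the same 5′-amino-C6 oligos coupled to NHS-Sepharose beads. Bound proteins were quantified by label-free LC-MS/MS and normalised to the control. EC50 was derived from a four-parameter log-logistic fit, and Kd was obtained by multiplying EC50 by a protein-dependent depletion factor.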

The next series addresses CSNK2B (UniProt P67870). The gist of the method: as §1
The next series deals with T1, FUBP1 (UniProt Q96AE4).
T1 sequence: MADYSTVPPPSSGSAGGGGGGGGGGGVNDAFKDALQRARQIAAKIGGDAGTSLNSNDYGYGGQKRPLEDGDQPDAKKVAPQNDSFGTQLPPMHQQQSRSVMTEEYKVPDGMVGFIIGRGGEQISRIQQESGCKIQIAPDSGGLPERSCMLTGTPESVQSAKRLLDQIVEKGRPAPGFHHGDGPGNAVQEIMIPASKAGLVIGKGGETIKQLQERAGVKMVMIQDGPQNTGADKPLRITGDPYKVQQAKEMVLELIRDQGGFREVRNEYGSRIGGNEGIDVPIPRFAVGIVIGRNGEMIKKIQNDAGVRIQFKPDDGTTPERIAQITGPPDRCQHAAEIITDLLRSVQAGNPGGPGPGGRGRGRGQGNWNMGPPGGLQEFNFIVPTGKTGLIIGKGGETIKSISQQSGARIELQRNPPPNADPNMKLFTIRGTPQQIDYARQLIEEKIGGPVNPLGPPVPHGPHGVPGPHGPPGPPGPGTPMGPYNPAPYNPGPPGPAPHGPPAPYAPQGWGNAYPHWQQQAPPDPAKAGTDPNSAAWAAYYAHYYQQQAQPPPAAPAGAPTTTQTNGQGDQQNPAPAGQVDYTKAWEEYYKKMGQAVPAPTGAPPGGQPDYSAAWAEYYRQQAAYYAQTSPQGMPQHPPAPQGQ
In a few lines: as §1

For a further series, the target named is RPS3 (UniProt P23396). In a few lines:
as §1

Another series has as its target PPIE (UniProt Q9UNP9). In a few lines:
as §1

For a further series, the target named is T2, MEX3D (UniProt Q86XN8).
T2 sequence: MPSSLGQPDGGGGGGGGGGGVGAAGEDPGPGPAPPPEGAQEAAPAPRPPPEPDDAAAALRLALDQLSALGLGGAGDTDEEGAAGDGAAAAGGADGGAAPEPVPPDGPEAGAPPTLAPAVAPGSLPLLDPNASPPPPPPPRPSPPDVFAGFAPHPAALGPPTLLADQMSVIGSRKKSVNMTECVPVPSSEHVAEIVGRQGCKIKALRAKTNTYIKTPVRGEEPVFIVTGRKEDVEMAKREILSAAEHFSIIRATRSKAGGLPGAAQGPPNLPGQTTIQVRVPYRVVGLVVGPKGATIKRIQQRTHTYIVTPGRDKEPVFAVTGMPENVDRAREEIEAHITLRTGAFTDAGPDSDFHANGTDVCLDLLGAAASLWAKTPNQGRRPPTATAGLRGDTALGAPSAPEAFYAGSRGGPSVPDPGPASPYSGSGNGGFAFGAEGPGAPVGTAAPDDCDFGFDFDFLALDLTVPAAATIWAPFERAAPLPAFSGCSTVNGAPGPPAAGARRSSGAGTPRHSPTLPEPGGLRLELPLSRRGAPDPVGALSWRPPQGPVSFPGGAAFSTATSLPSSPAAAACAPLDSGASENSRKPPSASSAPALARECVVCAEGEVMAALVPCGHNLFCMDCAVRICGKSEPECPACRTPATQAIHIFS
In a few lines:
as §1

For another series, the target named is MRPS18B (UniProt Q9Y676). The gist of the method: as §1
The target in the next series is T3, ZCRB1 (UniProt Q8TBF4).
T3 sequence: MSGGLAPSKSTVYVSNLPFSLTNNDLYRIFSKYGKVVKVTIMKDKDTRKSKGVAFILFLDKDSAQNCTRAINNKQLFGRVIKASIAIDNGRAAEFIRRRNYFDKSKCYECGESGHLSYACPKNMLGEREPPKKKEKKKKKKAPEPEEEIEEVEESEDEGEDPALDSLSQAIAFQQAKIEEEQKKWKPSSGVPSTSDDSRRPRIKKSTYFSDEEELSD
In a few lines:
as §1

A further series has as its target T4, PLOD1 (UniProt Q02809).
T4 sequence: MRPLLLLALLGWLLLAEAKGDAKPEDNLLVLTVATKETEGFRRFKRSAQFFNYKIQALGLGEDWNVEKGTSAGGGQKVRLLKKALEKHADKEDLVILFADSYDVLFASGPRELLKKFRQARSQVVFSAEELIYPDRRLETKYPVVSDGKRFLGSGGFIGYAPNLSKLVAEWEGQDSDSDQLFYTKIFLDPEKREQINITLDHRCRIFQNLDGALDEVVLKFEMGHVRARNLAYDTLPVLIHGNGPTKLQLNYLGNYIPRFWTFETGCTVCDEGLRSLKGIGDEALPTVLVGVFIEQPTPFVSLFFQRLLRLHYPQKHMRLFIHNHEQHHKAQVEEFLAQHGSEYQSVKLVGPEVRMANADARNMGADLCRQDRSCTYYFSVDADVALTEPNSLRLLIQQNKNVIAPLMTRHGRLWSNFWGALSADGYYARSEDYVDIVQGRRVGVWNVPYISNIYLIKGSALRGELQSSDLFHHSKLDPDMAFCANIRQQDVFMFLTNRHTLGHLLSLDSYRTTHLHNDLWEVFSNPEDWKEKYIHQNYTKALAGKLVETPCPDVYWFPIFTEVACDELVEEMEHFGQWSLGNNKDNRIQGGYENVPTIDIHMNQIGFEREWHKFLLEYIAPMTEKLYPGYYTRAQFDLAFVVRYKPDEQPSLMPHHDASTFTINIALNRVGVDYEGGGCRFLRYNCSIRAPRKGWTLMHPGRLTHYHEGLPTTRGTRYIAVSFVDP
The gist of the method: as §1

Another series concerns the target MRPS34 (UniProt P82930). In a few lines: as §1

Sequence of PPIE (Q9UNP9 whole entry): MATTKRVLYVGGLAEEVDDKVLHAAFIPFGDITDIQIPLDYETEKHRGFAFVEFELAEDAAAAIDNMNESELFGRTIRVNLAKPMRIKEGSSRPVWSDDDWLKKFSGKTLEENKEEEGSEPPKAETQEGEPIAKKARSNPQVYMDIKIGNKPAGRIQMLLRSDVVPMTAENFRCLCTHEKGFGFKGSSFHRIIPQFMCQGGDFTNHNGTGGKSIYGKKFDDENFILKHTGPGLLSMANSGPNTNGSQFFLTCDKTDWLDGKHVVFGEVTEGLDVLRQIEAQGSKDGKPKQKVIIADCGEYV
Sequence of SRRM2 (Q9UQ35 whole entry): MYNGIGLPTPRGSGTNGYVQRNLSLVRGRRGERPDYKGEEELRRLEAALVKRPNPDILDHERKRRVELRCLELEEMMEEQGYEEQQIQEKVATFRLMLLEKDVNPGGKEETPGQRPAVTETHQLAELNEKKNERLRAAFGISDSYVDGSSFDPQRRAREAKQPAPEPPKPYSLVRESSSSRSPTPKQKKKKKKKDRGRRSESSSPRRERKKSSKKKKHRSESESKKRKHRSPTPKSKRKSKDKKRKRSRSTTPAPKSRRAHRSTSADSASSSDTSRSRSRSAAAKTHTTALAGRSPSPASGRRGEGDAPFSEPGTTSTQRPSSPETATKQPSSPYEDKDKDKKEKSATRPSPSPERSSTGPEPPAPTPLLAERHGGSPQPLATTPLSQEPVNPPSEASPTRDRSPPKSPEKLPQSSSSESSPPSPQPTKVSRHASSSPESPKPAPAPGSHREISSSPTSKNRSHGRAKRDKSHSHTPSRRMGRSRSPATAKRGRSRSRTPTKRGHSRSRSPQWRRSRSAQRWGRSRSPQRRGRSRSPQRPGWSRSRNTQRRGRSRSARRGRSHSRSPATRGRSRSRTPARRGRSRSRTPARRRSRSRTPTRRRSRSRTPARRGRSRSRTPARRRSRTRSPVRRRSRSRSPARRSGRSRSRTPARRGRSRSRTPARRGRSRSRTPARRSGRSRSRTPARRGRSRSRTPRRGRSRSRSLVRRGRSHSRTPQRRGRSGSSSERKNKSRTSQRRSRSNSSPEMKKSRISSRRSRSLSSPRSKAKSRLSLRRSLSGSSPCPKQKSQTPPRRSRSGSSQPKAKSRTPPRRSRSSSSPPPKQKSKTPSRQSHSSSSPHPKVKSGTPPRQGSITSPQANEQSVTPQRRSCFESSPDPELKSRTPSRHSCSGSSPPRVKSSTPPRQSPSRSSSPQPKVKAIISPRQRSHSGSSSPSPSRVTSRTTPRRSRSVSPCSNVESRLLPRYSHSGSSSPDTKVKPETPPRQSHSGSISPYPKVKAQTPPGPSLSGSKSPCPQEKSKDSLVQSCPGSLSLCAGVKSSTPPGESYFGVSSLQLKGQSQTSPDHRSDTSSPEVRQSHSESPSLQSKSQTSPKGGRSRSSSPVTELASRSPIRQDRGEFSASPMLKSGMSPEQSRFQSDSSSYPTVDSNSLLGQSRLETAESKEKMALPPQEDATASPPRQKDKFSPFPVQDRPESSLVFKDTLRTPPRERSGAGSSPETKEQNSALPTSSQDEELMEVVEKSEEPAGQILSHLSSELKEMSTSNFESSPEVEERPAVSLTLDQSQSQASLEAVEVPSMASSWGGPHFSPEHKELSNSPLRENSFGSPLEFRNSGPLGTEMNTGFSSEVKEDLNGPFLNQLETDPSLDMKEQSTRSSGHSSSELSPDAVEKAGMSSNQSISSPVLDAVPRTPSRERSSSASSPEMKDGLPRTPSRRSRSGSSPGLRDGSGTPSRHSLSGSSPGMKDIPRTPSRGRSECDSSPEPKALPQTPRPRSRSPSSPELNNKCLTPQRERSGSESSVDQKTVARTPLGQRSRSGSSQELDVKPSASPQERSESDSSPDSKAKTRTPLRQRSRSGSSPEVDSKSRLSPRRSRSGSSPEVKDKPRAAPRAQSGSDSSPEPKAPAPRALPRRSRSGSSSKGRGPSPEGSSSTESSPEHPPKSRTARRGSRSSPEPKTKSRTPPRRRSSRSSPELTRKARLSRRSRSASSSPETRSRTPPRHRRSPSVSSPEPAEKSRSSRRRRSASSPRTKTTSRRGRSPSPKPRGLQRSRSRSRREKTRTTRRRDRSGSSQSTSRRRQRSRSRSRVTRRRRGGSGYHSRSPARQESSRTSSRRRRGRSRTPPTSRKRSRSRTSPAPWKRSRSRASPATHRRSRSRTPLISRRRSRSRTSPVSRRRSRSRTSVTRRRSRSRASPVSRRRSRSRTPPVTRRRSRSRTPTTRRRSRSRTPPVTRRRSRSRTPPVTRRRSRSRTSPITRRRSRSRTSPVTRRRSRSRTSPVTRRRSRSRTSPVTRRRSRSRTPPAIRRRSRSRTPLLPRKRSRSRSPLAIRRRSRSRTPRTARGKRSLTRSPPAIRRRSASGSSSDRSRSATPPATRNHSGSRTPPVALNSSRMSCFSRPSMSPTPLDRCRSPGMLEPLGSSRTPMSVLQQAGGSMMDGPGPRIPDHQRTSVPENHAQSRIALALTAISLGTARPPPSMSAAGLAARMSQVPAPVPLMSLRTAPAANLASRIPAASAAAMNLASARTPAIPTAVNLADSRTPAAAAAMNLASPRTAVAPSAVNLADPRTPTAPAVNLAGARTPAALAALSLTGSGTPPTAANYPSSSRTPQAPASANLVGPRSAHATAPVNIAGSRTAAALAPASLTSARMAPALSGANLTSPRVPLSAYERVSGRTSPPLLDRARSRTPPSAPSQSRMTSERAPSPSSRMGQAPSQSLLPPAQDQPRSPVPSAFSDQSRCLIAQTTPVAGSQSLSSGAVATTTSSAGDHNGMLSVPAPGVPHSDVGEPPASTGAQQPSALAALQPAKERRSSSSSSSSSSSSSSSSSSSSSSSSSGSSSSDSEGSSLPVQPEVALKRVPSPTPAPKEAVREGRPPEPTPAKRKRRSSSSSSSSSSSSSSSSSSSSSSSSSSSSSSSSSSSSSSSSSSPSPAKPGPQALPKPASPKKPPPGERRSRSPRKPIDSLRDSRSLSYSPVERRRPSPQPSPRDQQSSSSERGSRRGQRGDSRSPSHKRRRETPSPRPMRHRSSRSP
Sequence of CSNK2B (P67870 whole entry): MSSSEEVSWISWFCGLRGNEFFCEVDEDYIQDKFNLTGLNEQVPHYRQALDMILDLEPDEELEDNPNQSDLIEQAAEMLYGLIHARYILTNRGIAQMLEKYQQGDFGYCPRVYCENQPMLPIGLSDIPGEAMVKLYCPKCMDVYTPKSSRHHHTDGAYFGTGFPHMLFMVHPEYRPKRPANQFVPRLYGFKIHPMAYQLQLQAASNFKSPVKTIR

Regarding AAUAAA, the Kd in the series with SRRM2 came out at 0.367 µM; with CSNK2B, 2.22 µM; with FUBP1 it was 0.673 µM.
CUGUCCU: the Kd with RPS3 amounted to 0.109 µM.
Take UAUUUAU: the dissociation constant Kd in the series with PPIE turned out to be 0.205 µM; with MEX3D, 0.465 µM; in the series with MRPS18B it was 0.0529 µM; in the series with ZCRB1, 3.45 µM; in the series with PLOD1, 4.47 µM; in the series with MRPS34, 0.0462 µM.
